Reference: article PMC3086059

Target: Mua fused to the T18 or T25 fragment of adenylate cyclase (BACTH) (Helicobacter pylori)
Assay: two-hybrid
Conditions: scale: Miller units per mg of bacterial dry weight

Substance: Mua fused to the T18 or T25 fragment of adenylate cyclase (BACTH) (natural protein)
- beta-galactosidase activity: 1920 to 2980
